± gives the standard deviation.
Test: protein stability index of a GFP-peptide fusion (GPS, HEK-293T) (PSI 1-6); higher = more stable
[1] = treatment: DMSO, c terminus: a fixed tail appended
[2] = treatment: MLN4924 1 uM, 8 h, c terminus: a fixed tail appended
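Further: 24-mer peptide tiles fused after GFP, lentivirally expressed, FACS-sorted into six equal bins by GFP/DsRed ratio, decoded by Illumina sequencing, PSI is the read-weighted mean bin number.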

| Sequence | protein stability index [1] | protein stability index [2] | protein stability index (treatment: DMSO, c terminus: native) | protein stability index (treatment: MLN4924 1 uM, 8 h, c terminus: native) |
| --- | --- | --- | --- | --- |
| YSCQSKEILRYMKEFTLLLSAANV [P2RY14] | 2.4 ± 0.45 | 2.26 ± 0.31 | – | – |
| IFSFLPAPDRLRASASCSHWRECL [FBXO33] | 2.41 ± 0.28 | 2.07 ± 0.38 | – | – |
| IYLLRRQIRTVIQYQTVRYDILPL [CTDNEP1] | 2.94 ± 0.34 | 2.56 ± 0.51 | – | – |
| ATPGGGTGEAARPHKGLNLHPLLS [PCDHGC5] | 3.74 ± 0.17 | 3.83 ± 0.21 | – | – |
| HECKLTQEILELIDREVDLMMRGV [IQUB] | 2.88 ± 0.2 | 3.17 ± 0.67 | – | – |
| LDVGATEGQDLQHISNQKMPTGPP [DRICH1] | 5.18 ± 0.094 | 5.21 ± 0.091 | – | – |
| IDFLRVVRNQQSLAVSNMGARSKG [PTPN9] | 2.76 ± 0.17 | 3.46 ± 0.098 | – | – |
| VTLELSQLSMLPHLADLVSYSIQK [VDR] | 2.86 ± 0.52 | 2.91 ± 0.26 | – | – |
| GGDAGHAPFPPPPAADGARAPRSP [C6orf223] | 5.39 ± 0.28 | 5.5 ± 0.27 | – | – |
| EKAFIAHFQDNLHSVNRDLNELER [MED27] | 3.85 ± 0.23 | 4.09 ± 0.2 | – | – |
| TDLAQQQGGGNGQQQQAMSFAILR [KCNA4] | 3.96 ± 0.1 | 3.81 ± 0.35 | – | – |
| RLVELAGQSLLKDEALAIAALELL [PRAME] | 2.17 ± 0.47 | 2.02 ± 0.44 | – | – |
| GGGEGHQPAGNRRGQARRLAPNFR [BEX3] | 4.93 ± 0.17 | 4.92 ± 0.26 | – | – |
| FFVANKYWRYDEYKRSMDPGYPKM [MMP1] | 2.15 ± 0.33 | 2.16 ± 0.33 | – | – |
| DITQSIEDDPLLDAQLLPHHSLQA [TMEM192] | 4.15 ± 0.22 | 4.1 ± 0.37 | – | – |
| LPVNSPMNKGDTEVMKCIVEVISD [CHGA] | 3.22 ± 0.2 | 3.27 ± 0.19 | – | – |
| NAVRSAMKSEEQKIKDARKGPLVP [KMT5A] | 4.75 ± 0.11 | 5.07 ± 0.13 | – | – |
| LHHVKTMWYPEIKHFCPRAPVILV [RHOBTB2] | 2.65 ± 0.58 | 2.58 ± 0.87 | – | – |
| KLDQLDQDIENALSTSSSPSGTPT [DLC1] | 5.2 ± 0.19 | 5.35 ± 0.27 | – | – |
| RLCGGKGGFGSMLRALGAQIEKTT [SDE2] | 2.59 ± 0.23 | 2.55 ± 0.45 | – | – |
| VYKSLLLLAYLIRNGSERVVTSAR [CLINT1] | 2.57 ± 0.51 | 2.59 ± 0.39 | – | – |
| NPALQLILTRTDKTLNKKLGQNK [TOR1AIP2] | – | – | 3.87 ± 0.16 | 3.89 ± 0.12 |

| Sequence | protein stability index [1] | protein stability index [2] | protein stability index (treatment: DMSO, c terminus: native) | protein stability index (treatment: MLN4924 1 uM, 8 h, c terminus: native) |
| --- | --- | --- | --- | --- |
| LSINRYERKKNLTLALEALVQLRG [ALG2] | 2.25 ± 0.36 | 2.09 ± 0.2 | – | – |
| KFSLLNAKREETKAMESQRAYRFV [SPOPL] | 3.06 ± 0.42 | 3.13 ± 0.23 | – | – |
| RMDFAAKLMKNIRFPLMTPQELIN [KLHL13] | 2.01 ± 0.31 | 1.94 ± 0.27 | – | – |
| PDDPEHLAARRQWRDECLMRLAKL [CRYL1] | 3.66 ± 0.6 | 3.83 ± 0.36 | – | – |
| YMRYSRKVWDQVKASNPDLKLWEI [SMARCE1] | 2.18 ± 0.73 | 1.95 ± 0.066 | – | – |
| DKNISPRENILVSLGAVGEGFHNY [SCD] | 3.23 ± 0.49 | 3.18 ± 0.24 | – | – |
| ALFFKNIMNIIDIVSILPYFITLG [KCNA4] | 2.86 ± 0.21 | 3.43 ± 0.4 | – | – |
| KAFREEMKIFREKIEDFREEMWTF [CCDC70] | 2.35 ± 0.2 | 2.03 ± 0.54 | – | – |
| LSTSSSPSGTPTNLRRHVPDLESG [DLC1] | 4.65 ± 0.26 | 4.7 ± 0.21 | – | – |
| DLKPTGEIPKQVKVKKLKNLKTLD [DENND6A] | 4.24 ± 0.25 | 4.24 ± 0.31 | – | – |
| WLPQQNAAYFLLSTNDKTVKLWKV [PPP2R2B] | 2.53 ± 0.63 | 2.6 ± 0.8 | – | – |
| RGGMGSGGLATGIAGGLAGMGGIQ [KRT18] | 3.61 ± 0.18 | 3.38 ± 0.23 | – | – |
| RNQYEALVETNRREVEQWFATQTE [KRT33B] | 4.37 ± 0.28 | 4.27 ± 0.48 | – | – |
| RRFIQSCPIIRIPNRFLRGHRPPP [KLHDC10] | 2.67 ± 0.18 | 2.73 ± 0.43 | – | – |
| SLGGIRACTLTVFPPEETTPSPSR [KLHL13] | 3.63 ± 0.21 | 3.77 ± 0.17 | – | – |
| PEAISPDLVKKIRDFHRKILTLPE [TRIM15] | 2.51 ± 0.17 | 2.68 ± 0.37 | – | – |
| DKVGLITLSDWAAAVESVLHLGLP [PPEF2] | 2.5 ± 0.25 | 2.31 ± 0.64 | – | – |
| IQEQKVVLEENGEKNQVQLGKLEA [SASS6] | 5.2 ± 0.22 | 5.42 ± 0.3 | – | – |
| VEECQAALQNKDTYEPFCKVPVIT [KCTD10] | 4.06 ± 0.15 | 4.12 ± 0.3 | – | – |
| RGHQNWVYSCAFSPDSSMLCSVGA [WSB1] | 2.07 ± 0.18 | 2.03 ± 0.23 | – | – |
| CRDGEVLLRLSKHGPGHETPMTIP [ACSBG2] | 2.62 ± 0.4 | 2.66 ± 0.63 | – | – |
| LDSGIHSGATTTAPSLSGKGNPEE [CTNNB1] | 5.64 ± 0.29 | 5.54 ± 0.21 | – | – |
